Reference: US11839630B2, “CAR-T cells targeting IL-1RAP and their use” (ETABLISSEMENT FRANCAIS DU SANG, priority 2017, dated 2023)

Legend:
IL-1RAP = biological target: T1, IL-1RAP (Homo sapiens, UniProt Q9NPH3); test: Confocal microscopy on KU812 and Raji cell lines; type: binding; details: KU812 cells
T1 sequence (Q9NPH3 21-570): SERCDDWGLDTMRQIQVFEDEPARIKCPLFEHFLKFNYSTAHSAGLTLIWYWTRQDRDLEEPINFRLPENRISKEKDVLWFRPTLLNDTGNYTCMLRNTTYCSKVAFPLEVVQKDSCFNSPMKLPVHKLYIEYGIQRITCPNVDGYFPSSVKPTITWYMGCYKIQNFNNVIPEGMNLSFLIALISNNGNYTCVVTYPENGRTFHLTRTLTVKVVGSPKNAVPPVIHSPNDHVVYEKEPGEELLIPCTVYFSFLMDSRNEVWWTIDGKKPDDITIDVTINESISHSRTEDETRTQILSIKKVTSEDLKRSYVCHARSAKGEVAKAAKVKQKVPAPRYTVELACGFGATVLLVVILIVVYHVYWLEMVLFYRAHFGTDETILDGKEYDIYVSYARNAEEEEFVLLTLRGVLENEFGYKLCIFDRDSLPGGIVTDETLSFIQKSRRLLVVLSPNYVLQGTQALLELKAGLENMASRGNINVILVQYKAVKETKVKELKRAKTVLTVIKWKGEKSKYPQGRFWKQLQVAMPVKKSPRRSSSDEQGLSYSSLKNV
Procedure: FIG. 4: KU812 (a) and Raji cells lines (b) stained with Fluorescence mAbs [(left panel: anti murine Fc-IgG; medium panel: IL-1RAP (#E3C3)]. Counterstaining was performed by nuclear stain DAPI and superposed to Fluorescent staining (right panel, merge).
Confocal microscopy was assessed on KU812 and Raji cells lines concentrated on slides (Superfrost™ Plus, 4951PLUS4, ThermoFisher Scientific) by Cytospin. Briefly, the cells were stained with Fluorescent monoclonal antibodies: anti murine Fc-IgG; IL-1RAP (#E3C3) and were analyzed with an Olympus BX51 microscope equipped with a QImaging Retiga 2000R camera. Digital images were acquired using the 40× objective and digitalized with Image-Pro Plus (version 6.0, Media Cybernetics). Counterstaining was performed by nuclear stain DAPI (2-(4-Amidinophenyl)-6-indolecarbamidine dihydrochloride, Sigma-Aldrich-France) and superposed to fluorescent staining.

monocyte subpopulation = test: IL-1RAP cell surface staining of healthy donor monocytes; type: binding, human; details: 2/5 peripheral blood and 3/5 bone marrow from healthy donors
Procedure: FIG. 23: Effect of IL-1RAP CAR T cells on healthy hematopoietic cells and efficiency of the safety suicide gene iCASP9 cassette. (A) IL-1RAP cell surface expression on peripheral blood (left) or bone marrow (right) cells from healthy donors (n=5). SSC-A/CD45+ allowed discrimination of subpopulations as lymphocytes (SSC-A low), monocytes (CD33+), granulocytes (SSC-A high), or HSCs (CD33−/CD34+). RFI was calculated from isotype staining and provided in each window. (B) Representative (1 of 3) IL-1RAP staining of whole human cord blood cells. IL-1RAP staining is provided for whole CD34+, CD34+/CD38−, and CD34+/CD38+ HSC cord blood subpopulations. […] Percentages were calculated using absolute cell number determined using Trucount™ tubes based on 5000 fluorescent-bead cytometry acquisition. […] The quantification was performed after acquiring 5000 fluorescent beads. […] Cell killing was calculated as follows: % Dead cells=[1−(absolute number of viable cells in AP1903-treated cells/absolute number of viable cells in untreated cells)]×100. […] (G) Absolute quantification of IL-1RAP CAR T cells injected in a tumor (CML KU812, i.v.) xenograft NSG model 24 h after i.p. AP1903 (white bars) treatment (n=3 mice/group). […]

staining pattern by confocal microscopy (IL-1RAP): cell membrane staining
B1: #E3C3: mouse anti-hIL-1RAP monoclonal antibody subclone generated by standard hybridoma technique; VH SEQ ID NO: 2, VL SEQ ID NO: 4 (antibody, V domains shown)
VH: MGWSCIILFLVATATGVNSQVQLQQPGAELMMPGASVKVSCEASGYTFTDSWMHWVKQRPGQGLEWIGAIDPSDSYTTYNQKFTGKATLSVDESSNTAYMQLSSLTSEDSAVYYCARYYSGSNYISPFPYWGQGTLVTVSA
VL: MESQIQVFVFVFLWLSGVDGDIVMTQSHKFMSTSVGDRVTITCKASLDVSTAVAWYQQKPGQSPKLLIYSASYRYTGVPDRFTGSGSGTDFTFTISSVQAEDLAVYYCQQHYSPPFTFGSGTNLEIK
modifications: Amino acid sequence of chain H (VH) of murine scFv anti-IL-1RAP; Amino acid sequence of chain K (VL) of murine scFv anti-IL-1RAP
RFI of monocyte staining (weak staining) (monocyte subpopulation): < 2
